Assay results published in publication PMC2699623 (Structure (London, England : 1993), 2009).

How the values were obtained:
[1] = target: ALIXV, the middle domain (V-domain) of ALIX (monomeric form) (UniProt Q8WUM4); assay: SEC-MALS
[2] = target: ALIX_(Bro1-V), ALIX lacking the proline rich domain (monomeric form); assay: SEC-MALS
[3] = target: peptide derived from EIAV Gag p9 (equine infectious anemia virus (EIAV)); assay: ITC
SEC-MALS = target: the molecule itself; assay: SEC-MALS

Molecule: ALIXV, the middle domain (V-domain) of ALIX (monomeric form) (from UniProt Q8WUM4 360-702) (domain or fragment)
- stoichiometry N [1]: 2

Molecule: ALIX_(Bro1-V), ALIX lacking the proline rich domain (monomeric form) (domain or fragment)
- stoichiometry N [2]: 2

Molecule: dimeric ALIXV (from UniProt Q8WUM4 360-702) (complex)
- Kd [3]: 8 µM

B1: ALIX_(Vmut2) (domain or fragment)
chain: PVSVQQSLAAYNQRKADLVNRSIAQMREATTLANGVLASLNLPAAIEDVSGDTVPQSILTKSRSVIEQGGIQTVDQLIKELPELLQRNREILDESLRLLDEEEATDNDLRAKFKERWQRTPSNELYKPLRAEGTNFRTVLDKAVQADGQVKECYQSHRDTIVLLCKPEPELNAAIPSANPAKTMQGSEVVNVLKSLLSNLDEVKKEREGLENDLKSVNFDMTSKFLTALAQDGVINEEALSVTELDRVYGGLTTKVQESLKKQEGLLKNIQVSHQEFSKMKQSYKKANLREEVLKNLATAYDNFVELVANLKEGTKFYNELTEILVRFQNKCSDIVFARKTER
- stoichiometry N (SEC-MALS): 2
